Our source for the IC50 values is paper PMC10385607.

The assay addresses Human ALCAM (28–501)-6xhistidine tag (human) (UniProt Q13740). In words: ELISA; competition with CD6-Fc. (ELISA stands for enzyme-linked immunosorbent assay.)

Chain of Human ALCAM (28–501)-6xhistidine tag (human) (Q13740 28-501): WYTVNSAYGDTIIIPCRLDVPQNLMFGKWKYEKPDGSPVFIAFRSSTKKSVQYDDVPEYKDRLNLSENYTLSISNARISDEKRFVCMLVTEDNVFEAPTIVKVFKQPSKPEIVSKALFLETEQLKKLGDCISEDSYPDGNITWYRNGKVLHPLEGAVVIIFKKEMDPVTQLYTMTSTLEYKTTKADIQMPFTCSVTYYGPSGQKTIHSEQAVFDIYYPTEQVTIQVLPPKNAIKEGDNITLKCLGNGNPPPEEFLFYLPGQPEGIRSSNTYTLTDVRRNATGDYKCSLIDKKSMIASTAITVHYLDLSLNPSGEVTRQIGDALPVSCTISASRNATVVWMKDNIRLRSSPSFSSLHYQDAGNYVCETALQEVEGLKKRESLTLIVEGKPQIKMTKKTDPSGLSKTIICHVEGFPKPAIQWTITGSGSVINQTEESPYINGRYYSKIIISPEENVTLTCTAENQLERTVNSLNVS

mini-ab V2D7 (from UniProt P03069) yielded an IC50 of 5.63 nM.

Usually IC50 stands for the concentration at which inhibition is half-maximal. A high value points to weaker potency in that assay.
